In patent publication US20160310575A1:

Key:
Assay in all cases: cell-based or functional assay
human GIP-R (human) = human GIP-R (human) (UniProt P48546)
human GLP-R (human) = human GLP-R (human) (UniProt P43220)
human GCG-R (human) = human GCG-R (human) (UniProt P47871)
Sequence of human GCG-R (human) (P47871 26-477): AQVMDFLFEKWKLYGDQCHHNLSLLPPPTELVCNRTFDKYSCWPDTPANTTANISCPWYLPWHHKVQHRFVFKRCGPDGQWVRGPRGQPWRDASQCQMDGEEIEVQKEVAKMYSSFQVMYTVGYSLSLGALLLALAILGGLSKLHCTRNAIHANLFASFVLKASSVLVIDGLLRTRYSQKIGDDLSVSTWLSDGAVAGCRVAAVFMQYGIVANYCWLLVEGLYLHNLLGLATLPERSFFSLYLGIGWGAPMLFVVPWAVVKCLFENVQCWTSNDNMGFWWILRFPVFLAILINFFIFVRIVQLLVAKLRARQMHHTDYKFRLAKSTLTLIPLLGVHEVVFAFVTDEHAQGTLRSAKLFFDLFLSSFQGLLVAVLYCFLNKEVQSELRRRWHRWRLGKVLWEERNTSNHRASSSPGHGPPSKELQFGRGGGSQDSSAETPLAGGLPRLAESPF

Sequence of human GLP-R (human) (P43220 24-463): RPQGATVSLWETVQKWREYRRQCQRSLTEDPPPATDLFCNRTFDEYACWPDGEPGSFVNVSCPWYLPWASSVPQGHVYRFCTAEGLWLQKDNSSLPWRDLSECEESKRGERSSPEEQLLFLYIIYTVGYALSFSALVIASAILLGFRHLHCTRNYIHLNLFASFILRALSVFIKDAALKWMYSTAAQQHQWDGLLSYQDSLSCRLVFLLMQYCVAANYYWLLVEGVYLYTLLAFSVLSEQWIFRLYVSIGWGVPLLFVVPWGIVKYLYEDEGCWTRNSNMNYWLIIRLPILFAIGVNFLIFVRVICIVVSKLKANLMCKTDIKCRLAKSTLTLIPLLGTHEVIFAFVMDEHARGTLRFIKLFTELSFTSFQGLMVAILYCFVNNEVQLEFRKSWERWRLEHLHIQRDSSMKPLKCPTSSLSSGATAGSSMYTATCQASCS
Sequence of Dulaglutide (Fc fusion) (chain): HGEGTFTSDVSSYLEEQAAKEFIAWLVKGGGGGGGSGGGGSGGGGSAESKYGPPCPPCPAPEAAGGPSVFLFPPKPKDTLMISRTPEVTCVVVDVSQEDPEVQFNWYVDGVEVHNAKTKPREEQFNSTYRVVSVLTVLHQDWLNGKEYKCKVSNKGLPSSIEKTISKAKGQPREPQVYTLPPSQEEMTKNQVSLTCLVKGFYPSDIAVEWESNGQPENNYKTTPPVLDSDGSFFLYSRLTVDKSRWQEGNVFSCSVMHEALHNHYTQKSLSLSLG
Sequence of human GIP-R (human) (P48546 22-466): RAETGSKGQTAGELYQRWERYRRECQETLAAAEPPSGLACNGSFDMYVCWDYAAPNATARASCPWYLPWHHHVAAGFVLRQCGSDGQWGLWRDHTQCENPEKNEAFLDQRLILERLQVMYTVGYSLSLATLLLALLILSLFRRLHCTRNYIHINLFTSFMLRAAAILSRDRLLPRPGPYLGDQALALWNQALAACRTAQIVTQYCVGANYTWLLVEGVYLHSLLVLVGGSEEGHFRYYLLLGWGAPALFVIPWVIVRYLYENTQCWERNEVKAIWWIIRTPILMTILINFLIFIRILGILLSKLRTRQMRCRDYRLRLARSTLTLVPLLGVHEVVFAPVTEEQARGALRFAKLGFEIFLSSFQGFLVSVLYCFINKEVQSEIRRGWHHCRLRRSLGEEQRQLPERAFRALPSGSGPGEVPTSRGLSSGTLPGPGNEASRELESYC

| Substance | EC50 [nM], GIP-R (cAMP assay) (human GIP-R (human)) | EC50 [nM], GLP1-R (cAMP assay) (human GLP-R (human)) | % max GCG, human GCG-R (cAMP assay) (human GCG-R (human)) | EC50 [nM], human GCG-R (cAMP assay) (human GCG-R (human)) | % max GIP, human GIP-R (cAMP assay) (human GIP-R (human)) | EC50 [nM], human GIP-R (cAMP assay) (human GIP-R (human)) | % max GLP-1, human GLP-R (cAMP assay) (human GLP-R (human)) | EC50 [nM], human GLP-R (cAMP assay) (human GLP-R (human)) |
| --- | --- | --- | --- | --- | --- | --- | --- | --- |
| G3Fc only (from UniProt P0DOX5 223-449) | > 600 nM | > 600 nM | – | – | – | – | – | – |
| Dulaglutide (Fc fusion) | – | – | 1.6% | > 600 nM | 13.8% | > 600 nM | 98.2% | 0.129 nM |
